Laboratory results as given in patent publication US20100322974A1, “Targeting the histone code as a bacterial strategy for selectively modulating gene expression” (priority 2005, published 2010).

Columns and labels:
OspF = OspF (Shigella flexneri, UniProt Q8VSP9, R19K/S66F)
endogenous Erk = test: Erk phosphorylation in transfected HeLa cells stimulated by PMA; details: transfected expression plasmid, PMA stimulation
phospho Erk2-GST = test: In vitro phosphatase assay on phospho Erk2-GST (Western blot); details: for dephosphorylation of phospho-Erk2 substrate: purified protein, Western blot with anti phospho-Erk
[1] = system: histone H3 phosphorylation at Ser 10; test: H3 pS10 signal in HeLa cells infected with the ospF strain after kinase inhibitor pretreatment; format: cell-based; details: both inhibitors together, U0126 10 μM and SB203180 2.5 μM, 60 min pretreatment, 30 min infection
p38 MAP kinases = test: p38 phosphorylation in transfected HeLa cells stimulated by TNF; format: cell-based; details: transfected plasmid, TNF stimulation
Method: IF was performed with anti-OspF antibodies.

[2] = system: 33P-labeled Erk2 (GST-Erk2 fusion protein phosphorylated in vitro by MEK1) [GST: P08515]
^33P-labeled Erk2 = target: T1, ^33P-labeled Erk2 (Homo sapiens, UniProt P28482); test: 33P-labeled Erk2 phosphatase assay, steady state kinetics; format: biochemical; details: pH 8, 30° C., 100 nM phosphatase, 10 minutes, Michaelis-Menten fit; for Km: read-out: Km of Erk2 dephosphorylation
T1 construct: made in house
Source text: In vitro phosphatase assay.

[3] = system: histone H3 purified from calf thymus; test: Direct dephosphorylation of histone H3 or H3 tail peptides in vitro; format: biochemical; details: 2 hours 30° C., even at 100 fold increased enzyme concentration
[4] = system: histone H3 K14 acetylation; test: Trichostatin-induced hyper acetylation on K14 in HeLa cells overexpressing OspF; format: cell-based
Source text: A plasmid encoding myc-labelled OspF was used to overexpress OspF in HeLa cells. […] Thus, variations of the levels of phosphoacetylated histone H3 are likely to reflect the sole capacity of OspF to reduce the level of phosphorylation at Ser10.

phospho JNK1 = test: In vitro phosphatase assay on purified phospho JNK1 Histidine; format: biochemical; details: 50 nM substrate
[5] = system: histone H3 phosphorylation at Ser 10; test: H3 pS10 induced by okadaic acid in HeLa cells overexpressing OspF (immunofluorescence); format: cell-based; details: 200 nM okadaic acid 3 hours
Method: (A) HeLa cells were left untreated (ns) or infected with the WT or the ospF strain at the indicated time. Indirect immunofluorescence detection was performed with anti-phospho-histone H3 S10 polyclonal antibody. (B) HeLa cells were synchronized by a double thymidine block (2 mM thymidine) and left untreated (ns) or infected with the WT or the ospF strain at the indicated time. Immunoblots were probed with anti-H3 phospho S10 (H3 pS10), anti-H3 methyl K9-phospho S10 (H3 metK9-pS10), anti-H3 phospho S10 acetyl-K14 (H3 p-S10/Ac-K14), anti Histone H3 polyclonal anti-pp 38 and pErk antibodies. (C) HeLa cells were transfected with pRK5myc-OspF vector and treated with 200 nM okadaic acid for 3 hours. IF was performed with anti-myc (red) and anti-H3 methyl K9-pS10 (green) antibodies. […] (D) One micogram of calf-thymus histone (Sigma) was incubated with 300 ng of His-OspF or with 120 U of λ phosphatase for 2 hours at 30° C. Western blot was performed with an anti-metK9-pS10 antibody. (E) One micogram of peptide metK9-S10 was spotted onto a nitrocellulose membrane that was incubated with buffers, 5 μg/ml of OspF, or 2000 U/ml of lambda phosphatase for 2 hours at 30° C. Western blot was performed with an anti-metK9-pS10 antibody. (F) HeLa cells were pretreated for 60 min with either the MEK1 inhibitor U0126 (10 μM) or the p38 inhibitor SB203180 (2.5 μM) or both. […]

[6] = target: 33P-labeled Erk2 (GST-Erk2 fusion protein phosphorylated in vitro by MEK1) [GST: P08515]; remark: listed apart in the source
phospho p38-GST = test: In vitro phosphatase assay on purified phospho p38-GST; format: biochemical; details: 50 nM substrate
NF-κB = test: TNF-α-induced NF-κB reporter construct in Caco 2 cells; format: cell-based, human; details: overexpression in Caco 2 cells
Source text: In addition to the classical MAPK-dependent target genes, OspF also repressed expression of some NF-κB-dependent chemokine genes such as IL-8. The IL-8 promoter contains an NF-κB binding site essential for expression of this gene (Hoffmann et al., 2002). Therefore, the inventors looked whether OspF interferes with the NF-κB signaling pathway.

IL-12 = test: Cytokine production in infected lungs (murine pulmonary infection, ELISA); format: in vivo, mice; details: lungs infected with M90T or ospF strain, 24 hours post-infection
Method: The cytokine/chemokine network induced upon infection with Shigella flexneri was analyzed by comparing the profiles obtained upon infection with the invasive strain carrying the virulence plasmid (INV+) and the non-invasive, plasmidless strain (INV−). The murine model of pulmonary infection was used since it was the only valid model to analyze the specific host immune response upon Shigella infection. Following infection with INV−, a Th1 type-network (IL-12, IL-18, CCL9, CCL10, CCL13, and CCL4) was induced. In contrast, a Th2/Tr1 profile (IL-10, CCL1, CCL24 and CCL2) was induced upon infection with INV+. The difference observed was not due to the bacterial dose used for the infection, but was dependent on the presence or absence of the virulence plasmid.
Some of these bacterial effectors are injected within the host cells by a type III secretion apparatus. Use of different bacterial mutants, has highlighted that the bacterial effectors involved in the immunomodulation were effectors secreted by the type III-secretion apparatus. Finally, OspF, a type III-secreted bacterial effector was responsible for the control of IL-12 production (FIG. 10).

IL-8 promoter = test: ChIP with anti-OspF antibody at the IL-8 promoter in transfected HeLa cells; format: cell-based
Method: (A) DNA isolated from sonicated cross-linked chromatin fragments used as inputs for Chlp assays run on a 2% agarose/TAE gel. (B) Cross-linked chromatin fragments were prepared from Caco 2 cells left untreated (ns) or infected with the WT or the ospF strains at the indicated time. For each time point, aliquots were immunoprecipitated with irrelevant IgG, anti-H3 methyl K9-pS10, or anti-p65 antibodies. Histograms show the results obtained by Real-Time PCR analysis using amplicon from the promoter region of IL-8. Data are expressed as relative enrichment as compared to the result obtained with the corresponding IgG that have been immunoprecipitated at the same time point. […] (C) The data are given as in figure (B) except that the aliquots were immunoprecipitated with irrelevant IgG or anti-RNAPII antibodies. […]
To address whether MAPK-induced H3pS10 in the vicinity of the IL-8 promoter, HeLa cells expressing the plasmids encoding WT ospF, or as control, a C-terminal deletion mutant of the last 30 amino acids ospF (1-221) unable to localize within the nucleus (FIG. 7G) were processed for chromatin immunoprecipitation (ChIP) assay using the anti-OspF antibody and the enrichment of OspF at the IL-8 promoter was analyzed by Real-Time quantitative PCR.
In unstimulated cells, no signal was detected at the IL-8 promoter (FIG. 7H). […]

T1 sequence (P28482 whole entry): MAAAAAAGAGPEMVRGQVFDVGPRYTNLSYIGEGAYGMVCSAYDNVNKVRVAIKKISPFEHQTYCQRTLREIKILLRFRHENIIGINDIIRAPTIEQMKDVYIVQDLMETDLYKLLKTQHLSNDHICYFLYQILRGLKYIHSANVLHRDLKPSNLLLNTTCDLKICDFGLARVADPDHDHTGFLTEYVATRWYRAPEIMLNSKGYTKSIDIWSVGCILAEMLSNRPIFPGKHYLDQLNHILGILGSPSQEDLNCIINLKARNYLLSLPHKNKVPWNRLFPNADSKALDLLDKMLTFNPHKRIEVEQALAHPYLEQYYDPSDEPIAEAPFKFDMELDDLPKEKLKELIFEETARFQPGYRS

O=C(O)CN(CCN(CC(=O)O)CC(=O)O)CC(=O)O [EDTA]
OspF activity blocked by EDTA (metal dependence) (OspF): not blocked

His to Leu mutation at position 172: OspF with His to Leu mutation at position 172
ability to dephosphorylate Erk / prevent Erk phosphorylation in HeLa cells (endogenous Erk): retention of phosphatase activity

D219: OspF with aspartate D219 mutated into asparagine
dephosphorylation of phospho-Erk2 substrate (phospho Erk2-GST): did not impair phosphatase activity

C1805: OspF with Cys 180 mutated into Ser (printed C1805)
ability to dephosphorylate Erk / prevent Erk phosphorylation in HeLa cells (endogenous Erk): None of the mutations

C[S+]([O-])c1ccc(-c2nc(-c3ccc(F)cc3)c(-c3ccncc3)[nH]2)cc1 (centres unmarked) [SB 203180]
H3 pS10 signal induced by the ospF strain [1]: fully inhibited

N#CC(=C(/N)Sc1ccccc1N)/C(C#N)=C(\N)Sc1ccccc1N [U0126]
H3 pS10 signal induced by the ospF strain [1]: fully inhibited

myc-labelled OspF: myc labelled OspF expressed from plasmid pRK5myc-OspF
prevention of p38 phosphorylation in HeLa cells (p38 MAP kinases): prevented phosphorylation
ability to dephosphorylate Erk / prevent Erk phosphorylation in HeLa cells (endogenous Erk): prevented phosphorylation

B1: MKP1 (enzyme, UniProt P28562 1-367, looked up, species assumed)
Dual specificity protein phosphatase 1: MVMEVGTLDAGGLRALLGERAAQCLLLDCRSFFAFNAGHIAGSVNVRFSTIVRRRAKGAMGLEHIVPNAELRGRLLAGAYHAVVLLDERSAALDGAKRDGTLALAAGALCREARAAQVFFLKGGYEAFSASCPELCSKQSTPMGLSLPLSTSVPDSAESGCSSCSTPLYDQGGPVEILPFLYLGSAYHASRKDMLDALGITALINVSANCPNHFEGHYQYKSIPVEDNHKADISSWFNEAIDFIDSIKNAGGRVFVHCQAGISRSATICLAYLMRTNRVKLDEAFEFVKQRRSIISPNFSFMGQLLQFESQVLAPHCSAEAGSPAMAVLDRGTSTTTVFNFPVSIPVHSTNSALSYLQSPITTSPSC
Km (release of radioactive inorganic phosphate, Michaelis-Menten fit, 100 nM enzyme) [2]: 0.229 µM
Vmax (release of radioactive inorganic phosphate, Michaelis-Menten fit, 100 nM enzyme) [2]: 6.01 pM/s
dephosphorylation of 33P-labeled Erk2 (gel mobility in SDS-PAGE/autoradiography, phospho-Erk Western blot) [2]: Dephosphorylation of Erk2 by both enzymes was confirmed by the gel-mobility increase of the substrate
kcat (release of radioactive inorganic phosphate, Michaelis-Menten fit, 100 nM enzyme) [2]: 0.0006 s⁻¹
Vmax of Erk2 dephosphorylation (^33P-labeled Erk2): 6.01 pM/s
kcat of Erk2 dephosphorylation (^33P-labeled Erk2): 0.0006 s⁻¹
Km (^33P-labeled Erk2): 0.229 µM

B2: OspF phosphatase (protein)
chain: MPIKKPCLKLNLDSLNVVKSEIPQMLSANERLKNNFNILYNQIRQYPAYYFKVASNVPTYSDICQFFSVMYQGFQIVNHSGDVFIHACRENPQSKGDFVGDKFHISIAREQVPLAFQILSGLLFSEDSPIDKWKITDMNRVSQQSRVGIGAQFTLYVKSDQECSQYSALLLHKIRQFIMCLESNLLRSKIAPGEYPASDVRPEDWKYVSYRNELRSDRDGSERQEQMLREEPFYRLMIE
direct dephosphorylation of histone H3 and metK9-pS10 / pS10 peptides [3]: did not directly dephosphorylate
trichostatin-induced hyper acetylation on K14 [4]: did not impair
dephosphorylation of purified phospho JNK1 (phospho JNK1): failed to dephosphorylate
induction of H3 pS10 by okadaic acid [5]: efficiently prevented
Km (release of radioactive inorganic phosphate, Michaelis-Menten fit, pH 8, 30° C., 100 nM enzyme) [6]: 204 nM
Vmax (release of radioactive inorganic phosphate, Michaelis-Menten fit, pH 8, 30° C., 100 nM enzyme) [6]: 9.89 pM s^-1
kcat (release of radioactive inorganic phosphate, Michaelis-Menten fit, pH 8, 30° C., 100 nM enzyme) [6]: 0.0001 s^-1
dephosphorylation of pT183 and pY185 residues of Erk (phospho Erk2-GST; 500 ng OspF, 50 ng phospho Erk2-GST, 1 hour 30° C.): dephosphorylated both Thr and Tyr residues
dephosphorylation of phospho-Erk2 substrate (phospho Erk2-GST): directly dephosphorylated
dephosphorylation of purified phospho p38 (phospho p38-GST): directly dephosphorylated
TNF-α-induced activation of a NF-κB reporter construct (NF-κB): did not impair
IL-12 production in vivo (IL-12): down regulated
Vmax of Erk2 dephosphorylation (^33P-labeled Erk2): 9.89 pM/s
kcat of Erk2 dephosphorylation (^33P-labeled Erk2): 0.0001 s⁻¹
Km (^33P-labeled Erk2): 0.204 µM
recruitment of OspF at the IL-8 promoter (IL-8 promoter; TNF-α stimulation): transient recruitment
OspF at the IL-8 promoter (IL-8 promoter; unstimulated cells): not detectable
